The values below are quoted from earlier work in patent US5972698A, “Tryptase inhibitor” (Novartis Corporation, priority 1993, dated 1999).

The chains are these.
B1: mucus-proteinaseinhibitor: naturally occurring antiproteinase (protein, UniProt P03973 26-132, looked up)
Antileukoproteinase: SGKSFKAGVCPPKKSAQCLRYKKPECQSDWQCPGKKRCCPDTCGIKCLDPVDTPNPTRRKPGKCPVTYGQCLMLNPPNFCEMDGQCKRDLKCCMGMCGKSCVSPVKA
B2: soybean trypsin inhibitor: printed as 'soybean and lima bean trypsin inhibitor' (protein, UniProt P01070 25-205, looked up)
Trypsin inhibitor A: DFVLDNEGNPLENGGTYYILSDITAFGGIRAAPTGNERCPLTVVQSRNELDKGIGTIISSPYRIRFIAEGHPLSLKFDSFAVIMLCVGIPTEWSVVEDLPEGPAVKIGENKDAMDGWFRLERVSDDEFNNYKLVFCPQQAEDDKCGDIGISIDHDDGTRRLVVSKNKPLVVQFQKLDKESL
B3: ovomucoid inhibitor: proteinase inhibitor derived from non-human species (protein, UniProt P01005 25-210, looked up)
Ovomucoid: AEVDCSRFPNATDKEGKDVLVCNKDLRPICGTDGVTYTNDCLLCAYSIEFGTNISKEHDGECKETVPMNCSSYANTTSEDGKVMVLCNRAFNPVCGTDGVTYDNECLLCAHKVEQGASVDKRHDGGCRKELAAVSVDCSEYPKPDCTAEDRPLCGSDNKTYGNKCNFCNAVVESNGTLTLSHFGKC

The subject of the data set is Human tryptase.
Take B1: the “inhibition of tryptase (literature)” value is recorded as “not inhibited”.

Turning to B2, the “inhibition of tryptase (literature)” value is on record as “not affected”.

Turning to B3, the “inhibition of tryptase (literature)” value is on record as “not affected”.
